Source: the supplement of paper PMC11246515
± gives the standard deviation of the averaged measurements.

Experiment: total protein half-life in vivo (active degradation + dilution); higher = more stable protein
[1] = E. coli NCM3722 delta-clpP delta-lon delta-hslV, growth: N-lim chemostat, doubling time 6 h
[2] = E. coli NCM3722 delta-clpP, growth: N-lim chemostat, doubling time 6 h
[3] = E. coli NCM3722 delta-hslV, growth: N-lim chemostat, doubling time 6 h
[4] = E. coli NCM3722 delta-lon, growth: N-lim chemostat, doubling time 6 h
[5] = E. coli NCM3722 delta-smpB, growth: N-lim chemostat, doubling time 6 h
[6] = wild type E. coli NCM3722, growth: C-lim chemostat, doubling time 3 h
[7] = wild type E. coli NCM3722, growth: C-lim chemostat, doubling time 6 h
[8] = wild type E. coli NCM3722, growth: C-lim chemostat, doubling time 12 h
[9] = wild type E. coli NCM3722, growth: N-lim chemostat, doubling time 6 h
[10] = wild type E. coli NCM3722, growth: N-lim chemostat, doubling time 12 h
[11] = wild type E. coli NCM3722, growth: P-lim chemostat, doubling time 6 h
[12] = wild type E. coli NCM3722, growth: P-lim chemostat, doubling time 12 h

Sequence	total protein half-life in vivo [1]	total protein half-life in vivo [2]	total protein half-life in vivo [3]	total protein half-life in vivo [4]	total protein half-life in vivo [5]	total protein half-life in vivo [6]	total protein half-life in vivo [7]	total protein half-life in vivo [8]	total protein half-life in vivo [9]	total protein half-life in vivo [10]	total protein half-life in vivo [11]	total protein half-life in vivo [12]
MIKRVLVVSMVGLSLVGCVNNDTLSGDVYTASEAKQVQNVSYGTIVNVRPVQIQGGDDSNVIGAIGGAVLGGFLGNTVGGGTGRSLATAAGAVAGGVAGQGVQSAMNKTQGVELEIRKDDGNTIMVVQKQGNTRFSPGQRVVLASNGSQVTVSPR [P0A905]	5.26 ± 0.26 h	5.83 ± 0.096 h	6.11 ± 0.62 h	6.23 ± 0.85 h	6.1 ± 0.32 h	2.899 ± 0.023 h	5.41 ± 0.79 h	9.39 ± 0.33 h	5.49 ± 0.094 h	11.5 ± 0.94 h	5.87 ± 0.41 h	11.5 ± 0.73 h
MKTLFSRLITVIACFFIFSAAWFCLWSISLHLVERPDMAVLLFPFGLRLGLMLQCPRGYWPVLLGAEWLLIYWLTQAVGLTHFPLLMIGSLLTLLPVALISRYRHQRDWRTLLLQGAALTAAALLQSLPWLWHGKESWNALLLTLTGGLTLAPICLVFWHYLANNTWLPLGPSLVSQPINWRGRHLVWYLLLFVISLWLQLGLPDELSRFTPFCLALPIIALAWHYGWQGALIATLMNAIALIASQTWRDHPVDLLLSLLVQSLTGLLLGAGIQRLRELNQSLQKELARNQHLAERLLETEESVRRDVARELHDDIGQTITAIRTQAGIVQRLAADNASVKQSGQLIEQLSLGVYDAVRRLLGRLRPRQLDDLTLEQAIRSLMREMELEGRGIVSHLEWRIDESALSENQRVTLFRVCQEGLNNIVKHADASAVTLQGWQQDERLMLVIEDDGSGLPPGSGQQGFGLTGMRERVTALGGTLHISCLHGTRVSVSLPQRYV	5.18 ± 1.4 h	5.44 ± 0.69 h	6.91 h	6.14 ± 0.34 h	5.72 ± 0.14 h	2.75 ± 0.13 h	4.79 ± 0.62 h	10 ± 2.2 h	6.09 ± 0.24 h		6.19 h	
MVSRYVPDMGDLIWVDFDPTKGSEQAGHRPAVVLSPFMYNNKTGMCLCVPCTTQSKGYPFEVVLSGQERDGVALADQVKSIAWRARGATKKGTVAPEELQLIKAKINVLIG [P0AE70]	6.61 ± 0.43 h		6.264 ± 0.046 h	6.6 ± 0.43 h	5.59 ± 0.098 h	3.16 ± 0.28 h	5.35 ± 0.39 h		4.02 ± 0.46 h	9.87 ± 1.7 h	6.19 h	11 ± 0.37 h
MSEQLVTPENVTTKDGKINLLDLNRQQMREFFKDLGEKPFRADQVMKWMYHYCCDNFDEMTDINKVLRGKLKEVAEIRAPEVVEEQRSSDGTIKWAIAVGDQRVETVYIPEDDRATLCVSSQVGCALECKFCSTAQQGFNRNLRVSEIIGQVWRAAKIVGAAKVTGQRPITNVVMMGMGEPLLNLNNVVPAMEIMLDDFGFGLSKRRVTLSTSGVVPALDKLGDMIDVALAISLHAPNDEIRDEIVPINKKYNIETFLAAVRRYLEKSNANQGRVTIEYVMLDHVNDGTEHAHQLAELLKDTPCKINLIPWNPFPGAPYGRSSNSRIDRFSKVLMSYGFTTIVRKTRGDDIDAACGQLAGDVIDRTKRTLRKRMQGEAIDIKAV	4.37 ± 0.19 h	2.76 ± 0.77 h	1.13 ± 0.07 h	1.57 ± 0.14 h	1.15 ± 0.025 h	1.35 ± 0.022 h	1.89 ± 0.12 h	2.442 ± 0.024 h	1.31 ± 0.027 h	1.88 ± 0.24 h	1.78 ± 0.32 h	2.3 ± 0.26 h
MTHDNIDILVVDDDISHCTILQALLRGWGYNVALANSGRQALEQVREQVFDLVLCDVRMAEMDGIATLKEIKALNPAIPVLIMTAYSSVETAVEALKTGALDYLIKPLDFDNLQATLEKALAHTHSIDAETPAVTASQFGMVGKSPAMQHLLSEIALVAPSEATVLIHGDSGTGKELVARAIHASSARSEKPLVTLNCAALNESLLESELFGHEKGAFTGADKRREGRFVEADGGTLFLDEIGDISPMMQVRLLRAIQEREVQRVGSNQIISVDVRLIAATHRDLAAEVNAGRFRQDLYYRLNVVAIEVPSLRQRREDIPLLAGHFLQRFAERNRKAVKGFTPQAMDLLIHYDWPGNIRELENAVERAVVLLTGEYISERELPLAIASTPIPLGQSQDIQPLVEVEKEVILAALEKTGGNKTEAARQLGITRKTLLAKLSR	5.51 ± 2.1 h	3.79 ± 0.11 h	2.98 ± 0.35 h	4.45 ± 1.4 h	2.79 ± 0.13 h	2.64 ± 0.3 h	3.94 ± 1.3 h	6.74 ± 1.1 h	2.89 h	4.34 ± 0.63 h	3.93 ± 0.27 h	7.36 ± 0.67 h
MFHCPLCQHAAHARTSRYITDTTKERYHQCQNVNCSATFITYESVQRYIVKPGEVHVVRPHPLPSGQQIMWM	5.58 ± 1.3 h											
MKPVTLYDVAEYAGVSYQTVSRVVNQASHVSAKTREKVEAAMAELNYIPNRVAQQLAGKQSLLIGVATSSLALHAPSQIVAAIKSRADQLGASVVVSMVERSGVEACKAAVHNLLAQRVSGLIINYPLDDQDAIAVEAACTNVPALFLDVSDQTPINSIIFSHEDGTRLGVEHLVALGHQQIALLAGPLSSVSARLRLAGWHKYLTRNQIQPIAEREGDWSAMSGFQQTMQMLNEGIVPTAMLVANDQMALGAMRAITESGLRVGADISVVGYDDTEDSSCYIPPLTTIKQDFRLLGQTSVDRLLQLSQGQAVKGNQLLPVSLVKRKTTLAPNTQTASPRALADSLMQLARQVSRLESGQ	5.83 ± 0.72 h	5.64 ± 0.41 h	4.55 ± 0.067 h	4.85 ± 0.15 h	4.13 ± 0.042 h	2.96 ± 0.24 h	5.81 ± 0.66 h	7.63 ± 1.8 h	5.01 ± 0.34 h	7.759 ± 0.077 h	4.77 ± 0.2 h	10.5 ± 0.49 h
